# From patent US10494439 (dated 2019)
# B1: CD52 peptide 741 (peptide)
# peptide: GQNDTSQTSSPS
# Columns and labels:
# GLD52 = assay: SPR
# Y436T = assay: SPR
binder,measurement,setting,value
B1,Kd,GLD52,2.44 nM
same,Kd,Y436T,1.95 nM
